Consider 4 molecules from patent publication US20240158480A1 (ACADEMY OF MILITARY MEDICAL SCIENCE PLA, published 2024).

Assay [1] concerns the target NiV-BD G (Nipah virus, Bangladesh strain (NiV-BD)). Kind of assay: ELISA, G protein coated at 1 µg/mL, antibody titrated 1:3 from 20 µg/mL. Background: In an ELISA, binding on a coated surface is turned into a signal by an enzyme label.
Assay [2] shares this target. Kind of assay: cell-based or functional assay.
For assay [3], the target named is T1, NiV-MY G (Nipah virus, Malaysia strain (NiV-MY), UniProt Q9IH62 71-602).
T1 sequence: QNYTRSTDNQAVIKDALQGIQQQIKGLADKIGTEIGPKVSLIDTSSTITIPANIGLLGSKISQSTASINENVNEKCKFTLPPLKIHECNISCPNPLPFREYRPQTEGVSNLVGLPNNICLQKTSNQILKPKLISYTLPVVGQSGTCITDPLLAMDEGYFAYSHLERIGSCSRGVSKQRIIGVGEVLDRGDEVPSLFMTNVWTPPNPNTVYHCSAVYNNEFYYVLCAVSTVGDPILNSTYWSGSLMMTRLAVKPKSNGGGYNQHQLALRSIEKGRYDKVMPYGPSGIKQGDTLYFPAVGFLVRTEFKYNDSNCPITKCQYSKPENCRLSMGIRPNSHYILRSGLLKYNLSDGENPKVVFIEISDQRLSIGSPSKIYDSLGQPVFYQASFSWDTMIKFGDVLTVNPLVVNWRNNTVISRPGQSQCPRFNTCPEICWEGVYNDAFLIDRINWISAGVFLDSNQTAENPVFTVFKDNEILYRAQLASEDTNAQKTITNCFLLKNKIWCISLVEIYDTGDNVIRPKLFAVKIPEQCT
The assay is described as follows: cell-based or functional assay.

Assay [4] concerns the target T1, NiV-MY G. The assay is described as follows: ELISA, G protein coated at 1 µg/mL, antibody titrated 1:3 from 20 µg/mL.

B1: 1A9 (antibody, V domains shown)
VH: VQLQESGPGLVKPSETLSLTCAVSGDSISTGYDWTWIRQPPGKGLEWIGYIGGSSGNTNYNPSLKSRVTISKDTSKNQFSLKLSSVTAADTAVYYCARDGTRVYYYGLDSWGQGVVVTVSS
VL: ETVVTQEPSLSVSPGGTVTLTCGLSSGSVSTSNYPSWFQQTPGQAPRMLIYSTNIRPSGVPNRFSGSILGNKAALTITGAQADDESDYYCFFSMVSGTSVFGGGTRLTVLR
Usually EC50 stands for the concentration that produces a half-maximal response. With B1, the EC50 in assay [1] is 0.0183 µg/mL.

B2: 2B6 (antibody, V domains shown)
VH: QVQLVQSGAEVKKPGASVKLSCKASGYTFTSFYINWVRQAPGQVLEWMGWINPSNGDTGYAQKFQGRVTMSRDTSTSTAYMELSSLRSEDTAVYYCTRETVGSGTFDCWGQGVLVTVSS
VL: DIVMTQTPLSLSVTLGEPASISCRSSQSLVYSAGKTYLDWYLQKPGQSPQLLIYLVSKRASGVPDKFSGSGSGTDFTLKISRVEAEDVGVYYCMQALRSPLTFGGGTKVELK
notes: also called antibody 2B6; monoclonal antibody 2B6; copies: 2 + 2
Molecule B2 returned a neutralization of HIV-NiV-BD pseudovirus (luciferase, 293T cells) in assay [2] of 100%. The results for the EC50 (in assay [1]; in the assay with NiV-MY G [4]) were 0.0054 µg/mL and 0.00956 µg/mL, respectively. The “half inhibiting concentration (IC50), NiV-MY pseudovirus neutralization” value with NiV-MY G [3] was determined as 0.0283 µg/mL.

B3: 1F9 (antibody, V domains shown)
VH: QVQLQESGPGLVKPSETLSLSCAVSGGSFSDYWWGWIRQSPGKGLEWIGSIYGSSGRTAYSPSLKSRATISRDTSKNQLFLRLTSVTAADTGVYYCTNERFYGDSNRFDVWGPGVLVTVSS
VL: QPVLTQPTSLSASPGASARLTCTLSSGISVGNYRIFWYQQKPGSPPRYLLNYHTDSDKHQGSGVPSRFSGSKDASANAGILLISGLQSEDEADYYCMIWHNNVDVFGGGTKLTVLR
In the case of B3, in assay [2], the neutralization of HIV-NiV-BD pseudovirus (luciferase, 293T cells) amounted to 100%. The molecule further came in with an EC50 in assay [1] of 0.015 µg/mL.

B4: 1D11 (antibody, V domains shown)
VH: EVQLVESGGGLVQPGGSLRLSCAASGFTFSSYDMSWVRQAPGKGLEWVSSISSVTSYISYADSVKGRFTISRDNAKNSLSLQMNSLKTEDTAVYYCTTENWNFDFWGQGVLVTVSS
VL: DVVMTQSPLSLATTPGQPASISCRSSQSLVHSNGNTYLSWYQQKPGQPPRLLIYEVSNRDSGVPDRFSGSGAGTDFTLKISRVEAEDVGVYYCGQGTHWPPFTFGPGTKLDIK
notes: also called antibody 1D11; monoclonal antibody 1D11; copies: 2 + 2
For B4, the neutralization of HIV-NiV-BD pseudovirus (luciferase, 293T cells) in assay [2] was 100%. Moreover, the concentration for a half-maximal effect (EC50) came to 0.00991 µg/mL in assay [1] and 0.0202 µg/mL with NiV-MY G [4]. Besides, the “half inhibiting concentration (IC50), NiV-MY pseudovirus neutralization” value with NiV-MY G [3] is 0.0579 µg/mL.
